Assays:
HMW-MAA [1] = biological target: T1, HMW-MAA (Homo sapiens, UniProt Q6UVK1); assay: Indirect immunoperoxidase staining of melanocytic lesions; format: binding; parameters: from tissue; host or cells: human nevi, primary and metastatic melanoma lesions (frozen sections)
Excerpt: FIGS. 6A-6F. Immunohistochemical staining by scFv C21 of frozen surgically removed human nevi and melanoma lesions. scFv C21 stains a frozen nevus (FIG. 6A), a frozen primary melanoma lesion (FIG. 6B) and a frozen metastatic melanoma lesion (FIG. 6C). The specificity of the staining was monitored by staining the nevus (FIG. 6D), the primary (FIG. 6E) and the metastatic (FIG. 6F) melanoma lesions with the unrelated scFv #119.
The human melanoma cell lines Colo38, FO-1 and Melur and the human B lymphoid cell line LG2 were maintained in RPMI 1640 medium (Tissue Culture Media Facility, Roswell Park Cancer Institute (RPCI), Buffalo, N.Y.) supplemented with 10% serum plus supplement (BioWhittaker, Walkersville, Md.) and 2 mM L-glutamine (BioWhittaker). The human melanoma cell lines M14 and SK-MEL-28, the human fibroblasts FF2376, the human breast carcinoma cell line T47D, the human bladder carcinoma cell line T24, the human prostate carcinoma cell line PC3, the human B lymphoid cell lines JY and LKT13, and the rat neural cell line B49 were maintained in RPMI 1640 medium supplemented with 10% fetal bovine serum (FBS) (BioWhittaker) and 2 mM L-glutamine. The M14/HMW-MAA cells which express HMW-MAA following transfection of M14 cells with a plasmid DNA of pcDNA 3.1™ (+)/full length of HMW-MAA DNA construct (Yang et al., J Cell Biol 165:881-891, 2004) were grown in RPMI 1640 medium supplemented with 10% FBS, 2 mM L-glutamine and 0.4 mg/ml G418 (Promega, Madison, Wis.). Cells were cultured at 37° C. in a 5% CO2 atmosphere. Cell lysates were prepared as described (Desai et al., Cancer Res 58:2417-2425, 1998, herein incorporated by reference). Lesions of melanocytic origin were obtained from patients who had undergone surgery in the Department of Dermatology at Kumamoto University School of Medicine (Kumamoto, Japan). The diagnosis of melanoma lesions was based on histopathologic characteristics. The frozen and formalin-fixed tissue sections were prepared as described previously (Desai et al., Cancer Res 58:2417-2425, 1998, herein incorporated by reference).
The indirect immunoperoxidase staining of frozen and formalin-fixed tissue sections was performed as described previously (Desai et al., Cancer Res 58:2417-2425, 1998, herein incorporated by reference).

HMW-MAA [2] = biological target: T1, HMW-MAA; assay: ELISA of soluble scFv antibodies with cell lines; format: binding; parameters: Cultured human melanoma cells Colo38, FO-1, SK-MEL-28 and Melur, all of which express HMW-MAA; endogenous in cells; host or cells: Colo38, FO-1, SK-MEL-28, Melur human melanoma cells
Protocol: FIG. 1. Selective reactivity in ELISA of soluble scFv C21 with HMW-MAA^+ human cell lines. […] Binding of scFv fragments was detected using SA-HRP. Results are expressed as absorbance at 490 nm. Human anti-anti-id scFv #119 ( ? ) was used as a specificity control.
The ELISA to test the reactivity of soluble scFv antibodies with synthetic peptides and melanoma cells and of mouse immune sera with melanoma cells and with peptides was performed as described (Desai et al., Cancer Res 58:2417-2425, 1998; Desai et al., J Immunol 165:3275-3283, 2000; Matsui et al., J Immunol 139:2088-2095, 1987). Results are expressed as absorbance of optical density (O.D.) at 450 nm. The competition assay to map the antigenic determinant recognized by scFv C21 was performed by mixing biotinylated scFv C21 (0.25 μg/well) with two-fold dilutions of mouse mAb or scFv PP or by mixing biotinylated mAb (at an optimal amount giving absorbance, measured at 450 nm of 1.0) with two fold dilutions of scFv PP. […] Binding of biotinylated scFv antibodies and biotinylated mAb to target cells was measured by sequential incubation with SA-HRP and substrate as described (Noronha et al., J Immunol 161:2968-2976, 1998). The results are expressed as percent inhibition by mAb, scFv or peptide (competitor or inhibitor) of scFv or mAb binding to HMW-MAA^+ cells. […]

T1 sequence (Q6UVK1 30-2322): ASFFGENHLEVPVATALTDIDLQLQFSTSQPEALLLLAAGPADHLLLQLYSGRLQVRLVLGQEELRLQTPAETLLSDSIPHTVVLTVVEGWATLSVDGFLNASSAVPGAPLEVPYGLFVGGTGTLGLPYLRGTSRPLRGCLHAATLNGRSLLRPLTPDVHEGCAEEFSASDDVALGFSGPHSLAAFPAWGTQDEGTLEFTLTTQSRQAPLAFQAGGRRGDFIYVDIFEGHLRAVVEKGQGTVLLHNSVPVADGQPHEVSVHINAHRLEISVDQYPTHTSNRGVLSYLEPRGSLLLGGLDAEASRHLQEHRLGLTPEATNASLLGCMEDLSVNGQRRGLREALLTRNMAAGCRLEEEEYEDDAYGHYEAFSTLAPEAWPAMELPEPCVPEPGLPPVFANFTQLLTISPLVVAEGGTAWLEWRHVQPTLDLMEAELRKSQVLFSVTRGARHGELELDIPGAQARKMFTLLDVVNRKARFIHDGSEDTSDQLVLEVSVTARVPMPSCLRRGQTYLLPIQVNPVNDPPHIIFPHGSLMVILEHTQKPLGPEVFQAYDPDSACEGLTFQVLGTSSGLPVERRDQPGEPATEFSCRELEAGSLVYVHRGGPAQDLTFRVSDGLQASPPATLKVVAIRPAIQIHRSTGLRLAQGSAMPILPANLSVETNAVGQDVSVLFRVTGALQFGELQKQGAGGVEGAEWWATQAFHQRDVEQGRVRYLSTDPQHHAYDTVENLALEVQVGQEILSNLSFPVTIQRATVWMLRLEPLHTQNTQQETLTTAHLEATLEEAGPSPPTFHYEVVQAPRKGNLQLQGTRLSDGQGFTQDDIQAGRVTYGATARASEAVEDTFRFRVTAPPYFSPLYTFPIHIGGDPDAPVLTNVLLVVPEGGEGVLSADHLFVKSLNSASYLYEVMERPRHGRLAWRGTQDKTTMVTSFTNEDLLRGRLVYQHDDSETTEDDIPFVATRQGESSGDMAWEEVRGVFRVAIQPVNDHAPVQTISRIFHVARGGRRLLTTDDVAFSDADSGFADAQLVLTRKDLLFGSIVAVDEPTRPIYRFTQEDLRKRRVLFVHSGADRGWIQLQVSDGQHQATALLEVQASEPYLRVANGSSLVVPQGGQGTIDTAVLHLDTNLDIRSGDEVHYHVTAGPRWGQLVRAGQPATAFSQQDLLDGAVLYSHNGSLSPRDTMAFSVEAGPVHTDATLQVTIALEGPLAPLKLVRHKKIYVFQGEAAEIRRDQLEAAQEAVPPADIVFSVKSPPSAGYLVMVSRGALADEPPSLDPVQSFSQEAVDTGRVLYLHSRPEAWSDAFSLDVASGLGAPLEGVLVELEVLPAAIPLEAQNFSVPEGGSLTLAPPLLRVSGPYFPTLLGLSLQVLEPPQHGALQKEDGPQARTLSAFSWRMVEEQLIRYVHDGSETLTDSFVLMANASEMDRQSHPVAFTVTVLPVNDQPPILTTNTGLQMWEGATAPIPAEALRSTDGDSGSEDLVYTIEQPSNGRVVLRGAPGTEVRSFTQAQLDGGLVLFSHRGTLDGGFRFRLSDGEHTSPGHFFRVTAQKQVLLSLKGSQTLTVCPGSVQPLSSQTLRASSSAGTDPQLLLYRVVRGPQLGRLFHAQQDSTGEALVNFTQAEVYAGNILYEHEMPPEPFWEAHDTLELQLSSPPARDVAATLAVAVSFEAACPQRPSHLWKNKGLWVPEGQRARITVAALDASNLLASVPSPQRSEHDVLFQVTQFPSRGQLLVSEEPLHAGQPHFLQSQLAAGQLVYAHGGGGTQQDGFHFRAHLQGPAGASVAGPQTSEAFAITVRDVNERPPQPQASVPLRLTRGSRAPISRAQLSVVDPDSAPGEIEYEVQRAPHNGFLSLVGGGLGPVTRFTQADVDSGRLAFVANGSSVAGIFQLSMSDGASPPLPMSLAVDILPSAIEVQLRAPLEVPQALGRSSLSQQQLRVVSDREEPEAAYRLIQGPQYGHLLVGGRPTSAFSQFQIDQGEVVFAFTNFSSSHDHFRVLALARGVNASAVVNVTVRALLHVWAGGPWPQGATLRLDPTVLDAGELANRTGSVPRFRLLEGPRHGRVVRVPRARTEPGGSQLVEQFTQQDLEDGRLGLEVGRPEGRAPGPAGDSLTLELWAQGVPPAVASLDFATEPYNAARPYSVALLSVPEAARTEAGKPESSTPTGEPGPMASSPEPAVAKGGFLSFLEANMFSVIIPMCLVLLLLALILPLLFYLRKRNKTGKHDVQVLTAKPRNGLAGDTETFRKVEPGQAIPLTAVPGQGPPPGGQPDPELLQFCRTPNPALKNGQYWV

B1: scFv C21: HMW-MAA-specific fully human scFv from semi-synthetic phage display library; VH SEQ ID NO: 5, VL SEQ ID NO: 6 (antibody, listed as Homo sapiens, V domains shown)
VH: QVQLVQSGAEVKKPGSSVKVSCKASGGTFSSYAISWVRQAPGQGLEWMGGIIPIFGTANYAQKFQGRVTITADESTSTAYMELSSLRSDDTAVYYCARALDPITFDSWGQGTLVTVSR
VL: SELTQDPAVSVALGQTVRITCQGDSLRSYYASWYQQKPGQAPVLVIYGKNNRPSGIPDRFSGSSSGNTASLTITGAQAEDEADYYCNSRDSSGNHVVFGGGTKLTVLGRS
modifications: scFv linker
HMW-MAA [1]; formalin fixed paraffin embedded
  Staining of formalin fixed paraffin embedded melanocytic lesions: did not stain
HMW-MAA [1]; frozen sections
  Staining of frozen melanocytic lesions in the immunoperoxidase reaction: stained frozen melanocytic lesions
HMW-MAA [1]; metastatic lesions
  Metastatic lesions stained with a heterogeneous pattern: 3 lesions
  Metastatic lesions stained with a homogeneous pattern: 3 lesions
  Metastatic lesions with cytoplasmic staining: 3 lesions
  Metastatic lesions with membranous and cytoplasmic staining: 3 lesions
HMW-MAA [1]; out of 15 primary lesions
  Primary lesions stained with a heterogeneous pattern: 2 lesions
  Primary lesions stained with a homogeneous pattern: 9 lesions
HMW-MAA [1]; pigmented nevi
  Pigmented nevi stained homogeneously (membranous and cytoplasmic pattern): 4
HMW-MAA [1]; primary lesions
  Primary lesions with cytoplasmic staining: 6 lesions
  Primary lesions with membranous and cytoplasmic staining: 4 lesions
  Primary lesions with membranous staining: 1 lesions
HMW-MAA [2]; FIG. 1
  Reactivity in ELISA with panel of human cell lines with differential HMW-MAA expression and rat neural cell line B49: reacted only with the melanoma cell lines Colo38, FO-1, Melur and SK-MEL-28
HMW-MAA [2]; clones C3, C21, C29, C30
  Reactivity in ELISA relative to the other selected clones: highest reactivity

Source: patent US9694061B2, “Fully human antibodies to high molecular weight-melanoma associated antigen and uses thereof” (University of Pittsburgh—Of the Commonwealth System of …, priority 2008, dated 2017)
